What was measured:
[1] = target: β-galactosidase β-gal I from Bifidobacterium breve DSM 20213 (Bifidobacterium breve DSM 20213); experiment: SEC-MALS; Superdex S200 10/300 GL; 20 mM Tris pH 7.5, 150 mM NaCl, 1 mM β-mercaptoethanol, 5 mM EDTA; room temperature; 50 µL injected at 2.5 mg/mL; on-line MALLS and refractive index
[2] = target: β-galactosidase β-gal II from Bifidobacterium breve DSM 20213 (Bifidobacterium breve DSM 20213); experiment: as above

stoichiometry N [1]	stoichiometry N [2]	Substance
2		β-galactosidase β-gal I from Bifidobacterium breve DSM 20213 (enzyme)
	2	β-galactosidase β-gal II from Bifidobacterium breve DSM 20213 (enzyme)

Source: paper PMC4121272, “Two β-Galactosidases from the Human Isolate Bifidobacterium breve DSM 20213: Molecular Cloning and Expression, Biochemical Characterization and Synthesis of Galacto-Oligosaccharides” (PLoS ONE, 2014)
